{"source": "paper doi:10.1101/2020.10.27.356691", "about": "(bioRxiv, 2020)", "binders": {"B1": {"name": "rubredoxin B (RubB) from Mycobacterium tuberculosis, wild type (natural protein)", "chain": "MNDYKLFRCIQCGFEYDEALGWPEDGIAAGTRWDDIPDDWSCPDCGAAKSDFEMVEVARS"}}, "target": "T1, cytochrome P450 CYP124 from Mycobacterium tuberculosis (Mycobacterium tuberculosis, UniProt P9WPP3 1-428)", "T1 sequence": "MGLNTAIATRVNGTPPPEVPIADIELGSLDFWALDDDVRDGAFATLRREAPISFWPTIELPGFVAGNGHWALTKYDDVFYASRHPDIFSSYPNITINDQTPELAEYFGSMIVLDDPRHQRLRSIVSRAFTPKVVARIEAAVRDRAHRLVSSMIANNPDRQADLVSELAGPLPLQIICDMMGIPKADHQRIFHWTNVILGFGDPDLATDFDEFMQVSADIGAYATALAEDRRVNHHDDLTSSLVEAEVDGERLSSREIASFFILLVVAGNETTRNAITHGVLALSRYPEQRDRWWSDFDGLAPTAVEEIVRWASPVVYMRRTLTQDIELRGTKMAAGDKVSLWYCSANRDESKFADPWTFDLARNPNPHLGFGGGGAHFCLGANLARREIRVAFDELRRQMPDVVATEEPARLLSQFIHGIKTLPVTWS", "assay": "ITC", "data": [{"binder": "B1", "values": [{"measurement": "Kd", "result": 12.8, "unit": "µM"}]}]}
